From patent US20220143148A1, “COMPOSITIONS AND METHODS FOR MODULATING CGRP SIGNALING TO REGULATE INTESTINAL INNATE LYMPHOID CELLS” (The Broad Institute, Inc., priority 2019, published 2022)

System: small intestinal immune cells
Test: Droplet-based scRNA-seq of small intestinal immune cells (LP and PP), OVA vs PBS, clustering and differential expression
Format: in vivo, mouse
Settings: PP; cluster ID 8
Source text: To comprehensively characterize small intestinal immune cells, Applicants generated scRNA-Seq profiles for 58,067 immune cells collected from lamina propria (LP) and Peyer's patch (PP) regions at steady state and after induction of a type 2 inflammatory reaction to ovalbumin (OVA) (Brandt et al., 2003) (FIGS. 1A and 8A). To ensure sufficient representation of rare cells, Applicants combined a normalization strategy—removing by flow sorting either a portion of IgD+ naïve B cells, which are the most abundant cell type in PPs, or all CD19+ and CD3+ T cells (FIG. 8B, Methods)—with profiling of a sufficiently large number of cells number (P>0.99 to recover at least 15 cells from each cluster, Methods) by massively parallel scRNA-seq (Haber et al., 2017) (Methods). Applicants obtained 36,797 and 21,270 high quality cells passing initial filtering (Methods) from PP and LP regions, respectively.
Overall, Applicants annotated 27 cell subsets across the two compartments, spanning T cells, B cells, ILCs, dendritic cells (DCs), myeloid cells and stromal cells, in frequencies ranging from 0.07% to 14%. Briefly, Applicants first partitioned the cells from the PP regions by unsupervised clustering (Methods) into 46 clusters, retained the 97% of cells that were robustly assigned cell identities in each cluster (Methods), assigned the cells from the LP regions to the 46 clusters using a classifier (Methods), and visualized the data with scvis (Ding et al., 2018), a deep generative model-based method (FIGS. 1B and 8C, Methods). Next, Applicants identified genes that were differentially expressed between the cells in each cluster and the remaining cells (Table 1, Methods), as well as between pairs of clusters (Table 2), to elucidate identities of similar cell types/states. Applicants excluded from downstream analysis clusters mostly consisting of contaminants from epithelium, likely doublets, or cells with a small number of Unique Molecular Identifiers (UMIs) (FIGS. 1C and 8D), or lacking distinct markers (Methods). Altogether, Applicants retained 27 clusters spanning 85% of the cells and each associated with distinct marker genes (FIG. 8E, Methods).
To induce allergic reaction to OVA, 6 to 7 weeks old mice were sensitized twice, two weeks apart, with 50 μg of OVA plus 1 mg of aluminum potassium sulfate adjuvant via intraperitoneal injection. Two weeks later, mice were orally administered with 50 mg of OVA on every other day for a total of five times. 1 μg of α-CGRP peptide was administered simultaneously when indicated. Mice were deprived of food for 3-4 hours in cages with wood chip bedding for limiting antigen degradation in the stomach before each intragastric challenge.
Isolation of cells from Peyer's patches (PPs). Peyer's patches (PPs) were carefully dissected from the small intestine under a stereo microscope using a fine scissor, pierced once with a fine forcep. Tissues were digested in freshly made digestion buffer (RPMI-1640 containing 100 μg/ml Liberase™ and 50 μg/ml DNase I at 37° C. on a roto-mixer. After 15 min, tissues were very gently mixed using a 1 ml pipette. The supernatant was collected and added to ice-cold MACS buffer (pH 7.4; PBS plus 2% FCS and 2 mM EDTA). Pre-warmed (37° C.) fresh digestion buffer was added to the remaining tissues. After rotation at 37° C. for 15 min, the mixture was vigorously mixed using a 1 ml pipette for 1 min. Supernatants from the two steps were combined and passed through 70 μm filters and stained for FACS (below).
Isolation of cells from the lamina propria (LP). The small intestines were opened longitudinally and washed in ice-cold PBS. For scRNA-seq, roughly 0.5 cm of fragments from each of the distal, middle and proximal regions without visible PPs were collected. Epithelial cells were dissociated by tissue rotation in pre-warmed (37° C.) PBS containing 10 mM EDTA at 37° C. for 15 min, followed by additional incubation on ice for 15 min. Tissues were then shaken vigorously. […]

B1: OVA (protein, UniProt P01012 2-386, looked up)
Ovalbumin: GSIGAASMEFCFDVFKELKVHHANENIFYCPIAIMSALAMVYLGAKDSTRTQINKVVRFDKLPGFGDSIEAQCGTSVNVHSSLRDILNQITKPNDVYSFSLASRLYAEERYPILPEYLQCVKELYRGGLEPINFQTAADQARELINSWVESQTNGIIRNVLQPSSVDSQTAMVLVNAIVFKGLWEKAFKDEDTQAMPFRVTEQESKPVQMMYQIGLFRVASMASEKMKILELPFASGTMSMLVLLPDEVSGLEQLESIINFEKLTEWTSSNVMEERKIKVYLPRMKMEEKYNLTSVLMAMGITDVFSSSANLSGISSAESLKISQAVHAAHAEINEAGREVVGSAEAGVDAASVSEEFRADHPFLFCIKHIATNAVLFFGRCVSP
**Q.** Which results are given for B1?
**A.** Fosl2 percentage of expressing cells in OVA-treated group: 0.378; Ftl1 percentage of expressing cells in OVA-treated group: 0.963; Gadd45b percentage of expressing cells in OVA-treated group: 0.17; Gimap1 percentage of expressing cells in OVA-treated group: 0.776; Gimap6 percentage of expressing cells in OVA-treated group: 0.815; Gimap9 percentage of expressing cells in OVA-treated group: 0.511; Gnai2 percentage of expressing cells in OVA-treated group: 0.661; Gramd1a percentage of expressing cells in OVA-treated group: 0.336; Gramd3 percentage of expressing cells in OVA-treated group: 0.227; Gzma percentage of expressing cells in OVA-treated group: 0.764; H2-K1 percentage of expressing cells in OVA-treated group: 0.978; H3f3b percentage of expressing cells in OVA-treated group: 0.993; Hcst percentage of expressing cells in OVA-treated group: 0.898; Hist1h1c percentage of expressing cells in OVA-treated group: 0.348; Hist1h1e percentage of expressing cells in OVA-treated group: 0.176; Icam1 percentage of expressing cells in OVA-treated group: 0.175; Id2 percentage of expressing cells in OVA-treated group: 0.684; Ier2 percentage of expressing cells in OVA-treated group: 0.781; Ier5l percentage of expressing cells in OVA-treated group: 0.057; Ifi203 percentage of expressing cells in OVA-treated group: 0.547; Ifrd1 percentage of expressing cells in OVA-treated group: 0.276; Igha percentage of expressing cells in OVA-treated group: 0.488; Igkc percentage of expressing cells in OVA-treated group: 0.677; Ikzf2 percentage of expressing cells in OVA-treated group: 0.216; Il2rg percentage of expressing cells in OVA-treated group: 0.681; Il16 percentage of expressing cells in OVA-treated group: 0.336; Jun percentage of expressing cells in OVA-treated group: 0.453; Jund percentage of expressing cells in OVA-treated group: 0.846; Kdm2b percentage of expressing cells in OVA-treated group: 0.158; Kdm6b percentage of expressing cells in OVA-treated group: 0.274; Klf4 percentage of expressing cells in OVA-treated group: 0.122; Klf6 percentage of expressing cells in OVA-treated group: 0.589; Klrb1c percentage of expressing cells in OVA-treated group: 0.735; Klrb1f percentage of expressing cells in OVA-treated group: 0.56; Klrc1 percentage of expressing cells in OVA-treated group: 0.608; Klrc2 percentage of expressing cells in OVA-treated group: 0.505; Klrd1 percentage of expressing cells in OVA-treated group: 0.939; Klre1 percentage of expressing cells in OVA-treated group: 0.744; Klrk1 percentage of expressing cells in OVA-treated group: 0.873; Lax1 percentage of expressing cells in OVA-treated group: 0.286; Litaf percentage of expressing cells in OVA-treated group: 0.339; Lmna percentage of expressing cells in OVA-treated group: 0.089; Maff percentage of expressing cells in OVA-treated group: 0.251; Mcpt1 percentage of expressing cells in OVA-treated group: 0.209; Mir142hg percentage of expressing cells in OVA-treated group: 0.161; Ms4a4b percentage of expressing cells in OVA-treated group: 0.953; Ms4a6b percentage of expressing cells in OVA-treated group: 0.419; Myl6 percentage of expressing cells in OVA-treated group: 0.987; Nabp1 percentage of expressing cells in OVA-treated group: 0.702; Ncr1 percentage of expressing cells in OVA-treated group: 0.964; Ndel1 percentage of expressing cells in OVA-treated group: 0.216; Neat1 percentage of expressing cells in OVA-treated group: 0.503; Neurl3 percentage of expressing cells in OVA-treated group: 0.388; Nfil3 percentage of expressing cells in OVA-treated group: 0.365; Nfkb1 percentage of expressing cells in OVA-treated group: 0.374; Nfkbia percentage of expressing cells in OVA-treated group: 0.614; Nfkbid percentage of expressing cells in OVA-treated group: 0.146; Nfkbie percentage of expressing cells in OVA-treated group: 0.111; Nfkbiz percentage of expressing cells in OVA-treated group: 0.358; Ninj1 percentage of expressing cells in OVA-treated group: 0.125; Nkg7 percentage of expressing cells in OVA-treated group: 0.985; Nr4a1 percentage of expressing cells in OVA-treated group: 0.561; Nr4a2 percentage of expressing cells in OVA-treated group: 0.348; Nr4a3 percentage of expressing cells in OVA-treated group: 0.157; Odc1 percentage of expressing cells in OVA-treated group: 0.202; P2ry10 percentage of expressing cells in OVA-treated group: 0.374; Phlda1 percentage of expressing cells in OVA-treated group: 0.134; Pim1 percentage of expressing cells in OVA-treated group: 0.677; Pnrc1 percentage of expressing cells in OVA-treated group: 0.769; Ppp1r15a percentage of expressing cells in OVA-treated group: 0.406; Ppp1r16b percentage of expressing cells in OVA-treated group: 0.206; Ppp3cc percentage of expressing cells in OVA-treated group: 0.268; Prr7 percentage of expressing cells in OVA-treated group: 0.093; Ptp4a2 percentage of expressing cells in OVA-treated group: 0.606; Ptprcap percentage of expressing cells in OVA-treated group: 0.929
